In general, Kd refers to a measure of binding affinity in units of concentration. A low value points to tighter binding. As usually defined, the koff is a measure of how fast the partners let go of each other. Higher therefore signals fast dissociation. As a reminder, the kon is a measure of how fast the partners come together. A high value points to faster complex formation.

Data on one molecule can be found in paper doi:10.64898/2025.12.23.696179 (bioRxiv, 2025).

This assay deals with biotinylated TGPAvi (Galaxea fascicularis (engineered …, biotin on the Avi-tag (enzymatic biotinylation with BirA))). Kind of assay: BLI. (Biolayer interferometry detects binding as a change in optical thickness at a sensor tip.)

B1: Sb32 (VHH)
VHH: QVQLVESGGGLVQAGGSLRLSCAASGFPVGQQKMTWYRQAPGKEREWVAAITSAGWFTHYADSVKGRFTISRDNAKNTVYLQMNSLKPEDTAVYYCTVKVGAEYAGQGTQVTVSA
Consider B1, for which binding was put at a Kd of 26 nM, the koff was determined as 0.014 s⁻¹ and the association rate constant (kon) was found to be 530000 M⁻¹ s⁻¹.
